A short description of this data set: Solubility of the hydrophobic protein and its fragments. The class given is physicochemical.

B1: R16 protein: synthetic combination protein formed from silk proteins and resilins, polypeptide sequence SEQ ID NO: 4 (protein)
chain: MASMTGGQQMGRGSMGPGSSAAAAAAAASGPGQGQGQGQGQGGRPSDTYGPGSSAAAAAAAASGPGQGQGQGQGQGGRPSDTYGPGSSAAAAAAAASGPGQGQGQGQGQGGRPSDTYGPGSSAAAAAAAASGPGQGQGQGQGQGGRPSDTYGPGSSAAAAAAAASGPGQGQGQGQGQGGRPSDTYGPGSSAAAAAAAASGPGQGQGQGQGQGGRPSDTYGPGSSAAAAAAAASGPGQGQGQGQGQGGRPSDTYGPGSSAAAAAAAASGPGQGQGQGQGQGGRPSDTYGPGSSAAAAAAAASGPGQGQGQGQGQGGRPSDTYGPGSSAAAAAAAASGPGQGQGQGQGQGGRPSDTYGPGSSAAAAAAAASGPGQGQGQGQGQGGRPSDTYGPGSSAAAAAAAASGPGQGQGQGQGQGGRPSDTYGPGSSAAAAAAAASGPGQGQGQGQGQGGRPSDTYGPGSSAAAAAAAASGPGQGQGQGQGQGGRPSDTYGPGSSAAAAAAAASGPGQGQGQGQGQGGRPSDTYGPGSSAAAAAAAASGPGQGQGQGQGQGGRPSDTYG
In the case of B1, the solubility in water entry is listed as “about 1%”.

(Values after patent publication US20140194025A1, “Production of Highly Concentrated Solutions of Self-Assembling Proteins” (Freudenberg Forschungsdienste KG, priority 2010, published 2014).)
